Experimental data reported in patent publication US8710008B2, “Compounds, compositions and use” (Universitetet I Oslo, priority 2008, dated 2014).
Where two headings read alike, the source gives them in different places. Positions of bridges follow the written chain, without caps; N, C: chain ends. *: point of attachment. Boc = CC(C)(C)OC(=O)*

Legend:
AQP4 [1] = molecular target: T1, AQP4 (Homo sapiens, UniProt P55087); conditions: cited from earlier work
AQP1 = molecular target: T2, AQP1 (Homo sapiens, UniProt P29972); conditions: cited from earlier work
T2 sequence (P29972 1-269): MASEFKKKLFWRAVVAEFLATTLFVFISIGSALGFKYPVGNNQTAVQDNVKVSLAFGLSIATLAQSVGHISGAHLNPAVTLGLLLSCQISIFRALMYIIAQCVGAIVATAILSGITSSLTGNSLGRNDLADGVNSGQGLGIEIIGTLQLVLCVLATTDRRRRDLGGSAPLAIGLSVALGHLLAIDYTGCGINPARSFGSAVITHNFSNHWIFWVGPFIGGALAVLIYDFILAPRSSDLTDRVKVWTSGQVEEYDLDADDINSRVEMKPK

[2] = test system: crude membranes from rat cerebellum; experiment: Radioligand binding assay of [3H]peptide on crude membranes from rat cerebellum
Protocol: The radiolabelled compound denoted [3H]peptide was custom synthesised from the unsaturated precursor 29 (Example 27) by Perkin Elmer Health Sciences Inc., 549 Albany Street, Boston, Mass. 02118, U.S.A. The radioactive compound was received as an EtOH solution. The total activity of the sample was 1 mCi. and the radiological concentration was 2 mCi/mL. The specific activity was 42.9 Ci/mmol and the radiochemical purity (determined by HPLC) 99.8%. The specific activity was determined by mass spectrometry.
Female Wistar rats weighing 250-300 g (Mollegaard, Ejby, Denmark) were used. Experimental protocols conform to National Institutes of Health guidelines for the care and use of animals.
Brain cerebella (1:5 wt/vol) in ice cold 0.3 M sucrose, 50 mM Hepes, pH 7.4, 2 mM EDTA, protease inhibitors (Complete; Roche, Mannheim, Germany) were homogenised in clay-beads-containing tubes by Fastprep shaker and centrifuged at 1,000 g for 10 min at 4° C. The supernatant was spun down at 42,000 g for 60 min at 4° C. […] Protein concentration was determined by the DC Protein Assay Kit (Bio-Rad). […]
Binding data were analysed by non-linear regression using Microsoft Excel with the Solver add-in. The non-specific binding was assumed to be linear as a function of the concentration of free [^3H]peptide and analysed by linear regression. […]

AQP4 [3] = molecular target: T1, AQP4; conditions: liposome-based assay; cited from earlier work
[4] = molecular target: crude membranes from rat cerebellum (rat); experiment: radioligand saturation binding, non-linear regression, fit weighted 1/Y
[5] = molecular target: crude membranes from rat cerebellum (rat); experiment: radioligand saturation binding, filter assay, crude membranes
[6] = molecular target: crude membranes from rat cerebellum (rat); experiment: radioligand saturation binding, non-linear regression, unweighted fit
[7] = molecular target: crude membranes from rat cerebellum (rat); experiment: radioligand saturation binding, non-linear regression, fit weighted 1/Y^2

T1 sequence (P55087 whole entry, species assumed): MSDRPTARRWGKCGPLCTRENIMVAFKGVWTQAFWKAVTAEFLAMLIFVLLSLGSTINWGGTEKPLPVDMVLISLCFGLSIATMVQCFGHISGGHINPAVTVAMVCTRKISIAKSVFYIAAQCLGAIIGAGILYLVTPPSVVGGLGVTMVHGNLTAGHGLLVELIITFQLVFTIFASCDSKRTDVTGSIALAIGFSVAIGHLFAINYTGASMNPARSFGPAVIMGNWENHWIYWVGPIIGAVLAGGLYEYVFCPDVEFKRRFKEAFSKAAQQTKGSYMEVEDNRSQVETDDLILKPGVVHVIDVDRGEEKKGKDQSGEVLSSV

Question: Which “Effect on water permeation through AQP4” value (AQP4 [1]; Y. Tanimura et al. 2009) does the source give for `CC(=O)Nc1nnc(S(N)(=O)=O)s1` [Acetazolamide] here?
Answer: The value was “reversibly inhibits”.

Question: And the IC50 (AQP4 [1]; Y. Tanimura et al. 2009, read-out: IC50 of inhibition of water permeation through AQP4)?
Answer: Its IC50 is > 1000 µM.

Question: What about the “Effect on water permeation through AQP1” value (AQP1; Y. Tanimura et al. 2009) of the same molecule?
Answer: The value was “not through AQP1”.

Question: Which results are given for “[^3H]peptide: radiolabelled compound custom synthesised from the unsaturated precursor 29 (Example 27); specific activity 42.9 Ci/mmol (Boc-PPSVVSG-OMe; bridge 3-6; not fully specified (bridges); also: tritium label)”?
Answer: Specific binding ([2]; difference without and with 100 μM unlabelled peptide): 0.5-1 pmol/mg membrane protein; Kd ([2]; specific binding, non-specific defined with 100 μM unlabelled peptide, read-out: Kd value (affinity)): 0.1 to 0.2 µM

Question: Which “Effect on AQP4” value (AQP4 [3]) does the source give for `[Cl][Hg][Cl]` [mercury chloride] here?
Answer: Its value is “inhibit AQP4”.

Question: For `CC[N+](CC)(CC)CC` [tetraethylammonium ions, tetraethylammonium], which “Effect on AQP4” value (AQP4 [1]; up to 10 mmolar concentration, B. Yang et al. 2006) is on record?
Answer: Its value is “no effect”.

Question: What about the “Effect on AQP1” value (AQP1; R. Søgaard et al. 2008) of the same molecule?
Answer: The value was “no effect”.

Question: With Boc-PPSVVSG-OMe (bridge 3-6; also: tritium label) as the molecule, how does the Bmax [4] read?
Answer: Its Bmax is 1920 cpm.

Question: And the Bmax (fmol/mg protein) [4]?
Answer: The Bmax (fmol/mg protein) was 1000.

Question: And the Kd [4]?
Answer: Its Kd is 0.0927 µM.

Question: What about the Kd [5] of the same molecule?
Answer: Its Kd is 0.1 to 0.2 µM.

Question: What about the specific binding (Bmax) (pmol/mg membrane protein) [5] of the same molecule?
Answer: Its specific binding (Bmax) (pmol/mg membrane protein) is 0.5 to 1.

Question: And the Bmax [6]?
Answer: The Bmax was 2140 cpm.

Question: And the Bmax (fmol/mg protein) [6]?
Answer: The Bmax (fmol/mg protein) was 1120.

Question: And the Kd [6]?
Answer: Its Kd is 0.107 µM.

Question: And the Bmax [7]?
Answer: The Bmax was 1920 cpm.

Question: And the Bmax (fmol/mg protein) [7]?
Answer: The Bmax (fmol/mg protein) was 1000.

Question: What about the Kd [7] of the same molecule?
Answer: Its Kd is 0.0927 µM.
